In patent publication US20240245805A1 (Orna Therapeutics, Inc., priority 2020, published 2024):

B1: Lesavirus 1 (nucleic acid)
DNA: GTAACTAATAAGCAAGTTTTACTGCCTGCAAACTGCTTCAATGGGACCACCGCTTCGGCGACCCCTTTGTTGAGTTTGTATGTTTTTAAGTAATCTTTGCAACCATACGATTATTTTAGCCGCCTCTCTATAATGATCTTGTTATAGTGGGACGTGAAACATTGGTTTTTCTCACACACGTCCGGTCACCCGGGCGTGTGTTCTTCCGTAAGTCCTATCCACATACCATCGTGGGTAGGCCAGCATGTTTGCACAGGCTGTGACAGTGTGGGTGGGCTTTCCACCTCTCAACAACACACTGAATTGCAATGCACTCACGGAGGAAATGACAATTTGGTTATAGTTTTGAACTGTGCTAGTAATTTCTTTCACATTAAGCCATGTTGCCTGCGGAATCACATGTGGTAACACATGCCTCAGGGCCCAAAAGGCACGGGTTAGCAGCCCCTTCATGGTGTGTTAGAAGTGAAAACACATAGTATGAGCTATAATATCTTTGTTGTCTTCTCTGTAGTGTACCCCGCCAAATGTAAGGATGCCCAGCAGGTACCCATTTTATGGATCTGAGCTGGGGATTGATAGTGTATCTATAAATGCACTGATCAATTTAAAAAGCGTCTAAGTTTGGCACAAACACTGGGGACAGTGTTTTTCCTTTATTCTTTTATTTGATTA
modifications: lipid formulation; source: /note="Description of Unknown: Lesavirus 1 sequence"
B2: Wobbly possum disease virus (nucleic acid)
DNA: CGGCTGTGAGTGCTTAGCATATGCTAGAGTACTACAGCCGGGTGTTGGAGTCATATGCACTGGTTGCCTGTATAATAGTCGGGATCTGTCTGACCTACATTATCTTTGGGAGTTGCTTATCACGACAATTCTCGAAGTGTCTGTCGACAGCTTACCCCCGATTCGACAAGGCCCCTTGTCCACCGCAGACCTATCGATTTTCAACGAGAACACTATCAGAGGTTTAAATTTAAAACTCACCAACA
modifications: source: /note="Description of Unknown: Wobbly possum disease virus sequence"
B3: Seneca valley virus (nucleic acid)
DNA: TTTGAAATGGGGGGCTGGGCCCTGATGCCCAGTCCTTCCTTTCCCCTTCCGGGGGGTTAACCGGCTGTGTTTGCTAGAGGCACAGAGGGGCAACATCCAACCTGCTTTTGCGGGGAACGGTGCGGCTCCGATTCCTGCGTCGCCAAAGGTGTTAGCGCACCCAAACGGCGCACCTACCAATGTTATTGGTGTGGTCTGCGAGTTCTAGCCTACTCGTTTCTCCCCCGACCATTCACTCACCCACGAAAAGTGTGTTGTAACCATAAGATTTAACCCCCGCACGGGATGTGCGATAACCGTAAGACTGGCTCAAGCGCGGAAAGCGCTGTAACCACATGCTGTTAGTCCCTTTATGGCTGCAAGATGGCTACCCACCTCGGATCACTGAACTGGAGCTCGACCCTCCTTAGTAAGGGAACCGAGAGGCCTTCGTGCAACAAGCTCCGACACAGAGTCCACGTGACTGCTACCACCATGAGTACATGGTTCTCCCCTCTCGACCCAGGACTTCTTTTTGAATATCCACGGCTCGATCCAGAGGGTGGGGCATGACCCCTAGCATAGCGAGCTACAGCGGGAACTGTAGCTAGGCCTTAGCGTGCCTTGGATACTGCCTGATAGGGCGACGGCCTAGTCGTGTCGGTTCTATAGGTAGCACATACAAAT
modifications: source: /note="Description of Unknown: Seneca valley virus sequence"
B4: Porcine reproductive and respiratory syndrome virus 2 (nucleic acid)
DNA: ATGACGTATAGGTGTTGGCTCTATGCCTTGGCATTTGTATTGTCAGGAGCTGTGACCATTGGCACAGCCCAAAACTTGCTGCACAGAAACACCCTTCTGTGATAGCCTCCTTCAGGGGAGCTTAGGGTTTGTCCCTAGCACCTTGCTTCCGGAGTTGCACTGCTTTACGGTCTCTCCACCCCTTTAACC
modifications: lipid formulation; source: /note="Description of Unknown: Porcine reproductive and respiratory syndrome virus 2 sequence"
B5: Rabovirus A (nucleic acid)
DNA: CTACGGATATTTGCATGACCCGCTTTCTATCGCCCCAACAATCCCCTTTGTAACCACAAGCTTTACTCAGGCTAGCAGCCCGACTAGCTGTTTGGAAGAAAAGGCTAGGGCACACACCAACAACACCGACCCCACTGGTCGAAGGCCGCTTGGCAATAAGACTGGTGGAACAGGGTCGCCTGTAGTTGTTTGGAACATTCTTTCTAATGACTTTGTCAGCGGTGCTACTCACACCGTAACTCTTCTACCCTATCCCCACGCTTGTGGAACTAGGAGGGGATGAGTGATTCAAGTAAGTACTGTCAGAATGGTGAAAATGATCTGATTCTGAAACGCTATGGATCCATCGAAAGATGGGGCTACACGCCTGCGGAACAACACATGGTAACATGTGCCCCAGGGGCCGAAAGCCACGGTGATAGGATCACCCGTGTAGTTTGAGATCATATCAATGTTCATAGTCTAGTAAGATGATTTGAAATCTAACTGAGCTGATGGCTAACTGCTTGTCTTATTGCGGCCTAAGGATGTCCTGCAGGTACCTTTAGATAACCTTAAGAGACTATTGATCTGAGCAGGAGCCAAAGTGGTCTTTCCCAGCTTTGGTTAAAAAACGTCTAAGCCGCGGCAGGGGGCGGGAGGCCCCCTTTCCTCCCAAAACTTAATATTGATTGT
modifications: lipid formulation; Rabovirus A
B6: Yak enterovirus (nucleic acid, listed as Enterovirus sp.)
DNA: CTCCGGCACAGCCGCACCAGTGCACTGGTACGCTAGTACCTTTTCACGGGGTAGTCGGTATCCCCCCCCGTAACTTAGAAGCATGTAACAAACCGACCAATAGGTGCGCGGCAGCCAGCTGCGTTGCGGTCAAGCACTTCTGTCTCCCCGGTCCGCAAGGATCGTTACCCGCCCACTCCACTACGAGGAGCCTAGTAACTGGCCAAGTGATTGCGGAGTTGCGTTCAGCCACAACCCCAGTGGTAGCTCTGGAAGATGGGGCTCGCACATCCCCCGTGGTAACACGGTTGCTTGCCCGCGTGTGCTTCCGGGTTCAGTCTCCGACTGTTCACTTCAACATCACGCAACCAGCCAAGAGCCGATTGTGCTGGAGTGGTCTTCCTCCGGGGCCGTGAATGCTGCTAATCCTAACCTCCGAGCGTGTGCGCACAATCCAGTGTTGCTACGTCGTAACGCGTAAGTTGGAGGCGGAACAGACTACTTTCGGCACCCCGTGTTTCCTTTATTTTATTCTTATTTTATGGTGACAATTGCAGAGATTTGTGATATTGCGACTTTACCGTTAAACATAGCACTGCATTACCTGGTTGCATTCCACAAAACTTCAGAGATTCCTAGTTCCTACATTGACCTACTTGTTTATTTGAATCTTAAATACAAACTTGAGCAAGTGAA
B7: Sclerotinia sclerotiorum dsRNA mycovirus-L (nucleic acid)
DNA: TTGAATTAATCTTTTACGTTTACGCGCATAAAATCAGGACACATCTCTTGTATACTTTAGTATATCAATGATGTTTTTGTTTTATGCGATTAATCGTAAGAGAACTTCTTTCCATCCGCCTGTATGGGCGGGATAATAAGTTCACCGCCTTGGTCGAGGCGCAAACTTGTATGTGCAAAGGTGAGCTATATGCTCGAAATAGTCGTAACTAACACACAGCCACTACCTGTAGAGCTCTATTGATCCGGAATCCTTTAGTGGGAATGCAGAGCTCACACCGGACCTGCGGGTATCTTCGGCGTTAGGGACTTCTGTTTCAGCCTTGAATCATTTACCTTTATACCTTCTCTGAGGCGCCTGGGCCGGGCGCGATATTAAGTACAAGTCAAGGACATCGCGGGTAGTGGTCTAATCAGCCGCTAGTCCTGCTGGAGAGTTCCAACTTAGTTGGGTGTGGTGCATACTAGCTGGATAGAGTAGGTATGTATTGCTAACGTATGCCGGAGGCTATCCGTCCTCGGTAGAACGTGCCGAGGAGTAGTCTCTGCAGACCCCCGAACGCGTGGGGTCTTTACTTAAATGTAGGCGGAGGGAGCGCTCGTAGGTGGAACGACTGCCTCCCAGTCGAATGCAAGATTTTGCACGCGGACCAGTCTGCCCGGCAATTCCCGGGTG
modifications: source: /note="Description of Unknown: Sclerotinia sclerotiorum dsRNA mycovirus-L sequence"
B8: Picornavirales Tottori-HG1 (nucleic acid)
DNA: AGCCATGAACTAGTGTGCGATTCCCACAGTGTTGGTCGAAAGCCCCGCACTGTCTACTCGCATATTTGACTCCAGTCCTTCCGCAGCCAGCGGTTAGGTTCTGGTTAAAGTGCATTATGTGCACGGCGCCACGCAGAACTGCCAGAAATGGTAAGCTGCGCCCAACGCCAACGGTTTGTGTATCCCGTTAGTCACACGTTTACAGCTGTTCGTTAACAGTAGGGTTTTGTCGACCCGGACCCCTTAATGCGCGCGAATTCAACCGCGCCTAGTCGGCAATGGTATCATTTAATCCCATGCACTACGGGAGAAATTTGAGACCAAAGAATTCCTGAGGGCCACTGCTTGCTCTAAGTGCAATGCCTCGGGAGACTTCTGTCAGGAGCCTAGCGGCTTTCAACCGCGACAGCTAACTCCTGCGGGATGTTTGGTGTCCATACTTACTGGCGTCCTCACAACGCTAAGTGGATGTTGTCCACAGGTAGGCAAACACCGAGCCCCACATTCAGGAGACCTGTATGAACGATCCTATCAGCATTAGAGTTGGAATTGGGTGTGCTAACGTCCGCATAAGTGCACCCCGTGGTAACGCTGGGAAACTATCCAGCGCAACGTACTGTCCTCAATGTCTAGGGAAGGACCGCCCTAAGCGTACAACCGGGCCATGTGTCGAGC
modifications: lipid formulation; source: /note="Description of Unknown: Picornavirales Tottori-HG1 sequence"
B9: Shingleback nidovirus 1 (nucleic acid)
DNA: CTGTGAGTACCGACAGGCTCGAAGTCTATTATGAGGCGTCGAAACAGAAAACCTGTAACAACTCCGGTTTCATCTATCACTGCCGTCAAGAGGCAGAAGAGGACGACCACGTGTCACCAGATCACTTGTATCTGTTTCAGTCAGGAAGTCAACTTTTCGACGAAGTTCGACCATTCATCGACCCGCTGAAAAGCGTAGAAGTCGATGAAGATGAGCTCCAAAGAGCCATCGCCGATTTCGACAACCAAAGTGACTGTTTCCACTCCTTCGAGCTCGTGAATTTCGAGCTGAAACAACAAATCAACGAGAACGAGTGGTACGGTTATTATAATTACGACAACCAAAACTGCAAAGTTCAGTTGCCAGTCACATGTCGAATCGAGGACGTAACCTGGGATCAGGTTTACGTG
modifications: Shingleback nidovirus 1

Test system: HEK293 cells
Assay type: cell-based, human
Settings: circular RNA encoding Gluc with the listed IRES (UTR truncated to 675 nt) transfected into HEK293 cells; supernatant after 24 hours

Molecule | Expression (luminescence from secreted Gluc protein)
B1 | 6.37E+06
B2 | 2.60E+05
B3 | 1.46E+07
B4 | 1.29E+05
B5 | 2.88E+06
B6 | 6.19E+06
B7 | 1.69E+05
B8 | 9.54E+04
B9 | 2.62E+05
